Data taken from the supplement of paper PMC9170038.

System: MS2 coat protein
Test: apparent KD of MS2 coat protein; designed switch direction (-1 OFF switch, 1 ON switch): -1; higher = weaker reporter binding
Summary of the method: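 The buffer was Tris-HCl pH 7.5 with KCl, MgCl2, BSA, DTT, tRNA and Tween-20. In it, SNAP-549-labelled MS2 coat protein was titrated in doubling steps from 0.7 or 1.5 nM to 3 µM over chip-bound RNA switches transcribed by stalled E. coli RNA polymerase on Illumina chips. Apparent KD is the per-design median over clusters of curve fits to normalised fluorescence.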

[1] = Eterna round: R95, input ligand: FMN 200 uM
[2] = Eterna round: R95, input ligand: microRNA oligo, concentration not stated
[3] = Eterna round: R95, input ligand: none
[4] = input ligand: microRNA oligo, concentration not stated

Row | Sequence | apparent KD of MS2 coat protein (input ligand: FMN 200 uM) | apparent KD of MS2 coat protein (input ligand: none) | apparent KD of MS2 coat protein [2] | further results
1 | UCGGGCUCAGAGGAUAUGGGCGAAAAUAUAAAACCAGAAGGCUGAACUUGAGGAUCACCCAAGUACGGGCAAAA [Inxeridi] (Eterna round: R97, puzzle: Exclusion 6) | 143 nM | 67.9 nM |  | 
2 | AUAUACAAGCAAAGAUCCUACAUGAGGAUCACCCAUGUGUUCGUCUUAUAAAGUACUAUCACGAAAGUGAUAGUACA [Mat - Sensor v3 - turn-off var 1 - Eli Mod - D80] (puzzle: Sensor v3, turn-off variant 1) |  |  | 6.99 nM | apparent KD of MS2 coat protein [1]: 161 nM; apparent KD of MS2 coat protein [3]: 87.8 nM
3 | AUAAUGUAAGGAUAUCAGUCGUACAGCCUCGGCUGUACGACUGAGAAGGUACAUGAGGAUCACCCAUGUGGUCA [E4/9-A2] (Eterna round: R97, puzzle: Exclusion 4) | 103 nM | 1040 nM |  | 
4 | GUGCUAUGAGGAUAUACGUUGGUGGGCAUCUGUGUGCUCCUACAUGAGGAUCACCCAUGUAGAAGGCAUGUCAC [LRO-Excl2-20] (puzzle: Exclusion 2) |  |  | 11.9 nM | 
5 | GCGCACCUACCAAAAGGUAGGUCAACAUGAGGAUCACCCAUGUAGGAUAUCGAUUGCUUUGCAGUCGAGAAGGACAUGAUGCGC [JL ENG3 3.80 Mod 13] (Eterna round: R96, puzzle: Exclusion NG 3) | 111 nM | 36.7 nM |  | apparent KD of MS2 coat protein [4]: 36.3 nM
6 | UUUAAUUGUCAGAUGGGUGACAUGAGGAUCACCCAUGUCACAAGCUUUUUGCUCGUCUUAUAAUUAACCCAUCUGAC [Stov1/11-A1] (Eterna round: R97, puzzle: Sensor, turn-off variant 1) | 13.5 nM | 12.3 nM |  | 
7 | GGUACUAACACGAAAGUGUUAGUACUAUAGGUUUGUGUUACAUGAGGAUCACCCAUGUCCUCAUAAGCUCGUCUUGU [JL-sv3-2.21 mat747 mod] (puzzle: Sensor v3, turn-off variant 2) |  |  | 170 nM | apparent KD of MS2 coat protein [1]: 455 nM; apparent KD of MS2 coat protein [3]: 403 nM
8 | AGUCGGCGAGGAUAUACAUGAGGAUCACCCAUGUGAGAUAGUGCACGCGUACGUGUACGUAGAAGGCGCUGACA [Mat - Exclusion 3 - Mod of JL D94] (puzzle: Exclusion 3) |  |  | 11.1 nM | 
9 | GUGAAACAUGAGGAUCACCCAUGUGAGGAUAUGAUACUAUGUACUUCGGUACAUAGUAUCAGAAGGCACAGUGA [Ex1-3: 6] (puzzle: Exclusion 1) |  |  | 65.4 nM | 
10 | UAUUAGCUUGCGAGAUCCGACAUGAGGAUCACCCAUGUGCUCGUCUUAUAUGGGAGGGAGGGAAAACCCUCCCUCCC [mod-Eli] (Eterna round: R97, puzzle: Sensor, turn-off variant 1) | 23.8 nM | 25.4 nM |  | 
11 | GAUGAGGUAGGAUAUACGAGAAGAUAGGGUAGAUAGAUAACACAUGAGGAUCACCCAUGUAGAAGGACCAGUAG [Mat - Exclusion 2 - Mod of my Tesla design - D72] (puzzle: Exclusion 2) |  |  | 32.5 nM | 
12 | CUGGUUCUAGGAUAUGCACUCACGAUCCUCCUUCAAUCGCAACAUGAGGAUCACCCAUGUAGAAGGAGAAAGUA [Eternabot (L1) Solution 91] (Eterna round: R97, puzzle: Exclusion 2) | 18.5 nM | 18.6 nM |  | 
13 | GGUUGGCGAGGAUAUACAUGAGGAUCACCCAUGUGAGAGAAAACAGUGAGGAAGAAAAGUAGAAGGCGCUGACG [salish99_ex3_r3_024] (puzzle: Exclusion 3) |  |  | 52.6 nM | apparent KD of MS2 coat protein [1]: 466 nM; apparent KD of MS2 coat protein [3]: 48 nM
14 | CUCGGACAUGAGGAUCACCCAUGUGAGGAUAUGGUGCUAUCGUCAUUAGACGAUUGCGUUAGAAGGCACAAAUG [LRO-Excl1-28] (puzzle: Exclusion 1) |  |  | 35.2 nM | 
15 | UGAUCUAGCGGAGGAUAUACAUGAGGAUCACCCAUGUAUAGGCUAUGACCGUAGUCGUGGAACAUGUAGAAGGCCGCUAGAUCU [JL ENG2 3.79] (Eterna round: R96, puzzle: Exclusion NG 2) | 569 nM | 45.9 nM |  | apparent KD of MS2 coat protein [4]: 40.3 nM
